Results taken from patent publication US20190262327A1 (AstraZeneca / MedImmune, published 2019).

T1: unlabelled murine Amyloid beta 1-42 peptide (murine, UniProt P12023 672-713)
T1 construct: domain: Amyloid beta 1-42 peptide
T1 peptide (looked up): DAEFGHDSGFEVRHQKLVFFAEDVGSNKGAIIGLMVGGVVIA

T2: unlabelled murine Amyloid beta 1-40 peptide (murine, UniProt P12023 672-711)
T2 construct: domain: Amyloid beta 1-40 peptide
T2 peptide (looked up): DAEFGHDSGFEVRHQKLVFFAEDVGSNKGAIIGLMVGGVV

B1: Abet0380-GL (germlined) IgG1-TM (antibody, V domains shown)
VH: EVQLLESGGGLVQPGGSLRLSCAASMGNFNYQTMWWVRQAPGKGLEWVSVIGKTNENIAYADSVKGRFTISRDNSKNTLYLQMNSLRAEDTAVYYCAREWMDHSRPYYYYGMDVWGQGTLVTVSS
VL: SYELTQPPSVSVSPGQTASITCSGHNLEDKFASWYQQKPGQSPVLVIYRDDKRPSGIPERFSASNSGHTATLTISGTQAMDEADYYCSSQDTVTRVFGGGTKLTVL
notes: also called Abet0380-GL IgG1-TM; Abet0380-GL IgG1TM

Legend:
[1] = target: B1; assay: HTRF competition: unlabelled peptide titrated against the binding of N-terminal biotin Abeta 1-42 (1.5 nM) to Abet0380-GL IgG1-TM (0.5 nM)
Protocol: The assay was then incubated for a further 2 hrs at room temperature before reading on an Envision plate reader (PerkinElmer) using a standard homogeneous time resolved fluorescence (HTRF) read protocol.
The final assay volume was 20 μl and all reagents were prepared in an assay buffer comprising MOPS pH7.4 (50 mM), potassium fluoride (0.4M), tween 20 (0.1%) & fatty acid free BSA (0.1%). The assay was performed in low volume 384 well black assay plates (Costar 3676).

[2] = target: T3, biotinylated synthetic human Amyloid beta 1-42 peptide (human, UniProt P05067 672-713, biotinylated (N-terminal biotin in Example 4)); assay: Surface Plasmon Resonance, purified scFv (group statement that sums up Table 5)
T3 construct: domain: Amyloid beta 1-42 peptide; Numbers 1-42 count on the Amyloid beta peptide, not on APP; also called biotinylated human Amyloid beta 1-42; N-terminal biotin Abeta 1-42

[3] = target: T3, biotinylated synthetic human Amyloid …; assay: HTRF epitope competition; purified scFv titrated; competitor Abet0144-GL IgG1-TM
Protocol: (§1) Two thousand and twenty four scFv chosen at random from selection rounds 3 and 4 of the targeted mutagenesis approach described in section 1.2 were expressed in bacteria to produce unpurified periplasmic scFv.
(§2) One thousand six hundred and seventy two scFv, randomly selected from selection rounds 9 to 11, were screened in an epitope competition assay as described in section 1.3.
(§3) Where the assay was performed more than once, the absolute range of IC₅₀ values is provided.
Target sequence in this assay (P05067 672-713 limits assumed): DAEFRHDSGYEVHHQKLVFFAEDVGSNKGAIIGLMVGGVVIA

[4] = target: T3, biotinylated synthetic human Amyloid …; assay: HTRF epitope competition: purified scFv titrated against the complex of biotinylated human Amyloid beta 1-42 and Abet0144-GL IgG1-TM [upper graph; the letter C stands below it]
From the text: as §1, §2

[5] = target: T3, biotinylated synthetic human Amyloid …; assay: HTRF epitope competition; purified scFv titrated; competitor Abet0144-GL IgG1-TM; range of repeats
Protocol: as §1, §2, §3
Target sequence in this assay (P05067 672-713 limits assumed): as above

[6] = target: T3, biotinylated synthetic human Amyloid …; assay: SPR (ProteOn); biotinylated peptide on streptavidin chip, scFv in solution; 1:1 Langmuir fit
Protocol: (§4) These experiments were performed essentially as described by Karlsson et al. (Karlsson et al., 1991).
(§5) The chip surface was regenerated between cycles by a single 60 second injection of 10 mM Glycine pH 2.0 to remove scFv bound to the peptide.
(§6) Each scFv at 100-200 nM was sequentially passed over the peptide surface for a sufficient amount of time to observe sensorgrams that could be fitted to an appropriate binding model with confidence. An irrelevant scFv blank was subtracted from the main dataset to reduce the impact of any buffer artefacts or non-specific binding effects. An appropriate binding model was then fitted to the data.

[7] = target: T3, biotinylated synthetic human Amyloid …; assay: SPR (ProteOn); biotinylated peptide on streptavidin chip, scFv in solution
Protocol: as §4, §5, §6
Target sequence in this assay (P05067 672-713 limits assumed): as above

[8] = target: T3, biotinylated synthetic human Amyloid …; assay: HTRF epitope competition: purified scFv titrated against the complex of biotinylated human Amyloid beta 1-42 and Abet0144-GL IgG1-TM
From the text: as §1, §2

[9] = target: T4, synthetic human Amyloid beta 1-42 peptide (human, UniProt P05067 672-713); assay: SPR (BIAcore T-100); IgG captured on protein G, peptide 0.063-1024 nM in solution; 1:1 Langmuir fit
T4 construct: domain: Amyloid beta 1-42 peptide; also called Abeta 1-42
Protocol: The chip surface was regenerated between cycles by paired 40 second injections of 10 mM Glycine pH 2.0 to remove ligand and bound antibody. The test antibody was then reapplied for each peptide injection.
Blank reference flow-cell data were subtracted from each IgG dataset and a zero-concentration antibody-only buffer blank was double-reference subtracted from the main dataset. An appropriate binding model was then fitted simultaneously to the data from each analyte titration using the BIAevaluation software.

[10] = target: T1, unlabelled murine Amyloid beta 1-42 …; assay: Surface plasmon resonance (BIAcore), antibody captured on protein G, single cycle with five peptide injections (64 to 1024 nM by paragraph 390)
Protocol: as §4
(§7) The interaction between each test IgG and each peptide was estimated using assays in which the antibody was non-covalently captured by a protein G surface that was itself amine linked to a proprietary CM5 chip. […] The chip surface was regenerated between cycles by paired 40 second injections of 10 mM Glycine pH 2.0 to remove ligand and bound antibody. The test antibody was then reapplied for each peptide injection cycle.
(§8) Blank reference flow-cell data were subtracted from each IgG dataset and a zero-concentration antibody-only buffer blank was double-reference subtracted from the main dataset.

[11] = target: T2, unlabelled murine Amyloid beta 1-40 …; assay: Surface plasmon resonance (BIAcore), antibody captured on protein G, single cycle with five peptide injections
Protocol: as §4, §7, §8

[12] = target: T5, biotinylated human Amyloid beta 1-40 peptide (human, UniProt P05067 672-711, biotinylated); assay: as above
T5 construct: domain: Amyloid beta 1-40 peptide
Protocol: as §4, §7, §8

| IC50 [3] [nM] | IC50 [5] [nM] | Kd [7] [nM] | koff [7] [s⁻¹] | kon [7] [M⁻¹ s⁻¹] | Binder | other results |
| --- | --- | --- | --- | --- | --- | --- |
|  |  |  |  |  | LVFFAEDVGSNKGAIIGLMVGGVVIA (peptide, UniProt P05067 688-713, looked up, domain: Abeta 17-42) [human Abeta 17-42 peptide] | IC50 (read off the curve) [1]: ~5 nM |
| 0.43 | 0.38 to 0.47 |  |  |  | Abet0380 scFv (scFv, V domains shown, not shown: small tags and cut ends, Purified scFv expressed in E. coli) VH: EVQLLESGGGLVQPGGSLRLSCAASMGNFNYQTMWWVRQAPGRGLEWVSVIGKTNENIAYADSVKGRFTISRDNSKNTLYLQMNSLRAEDTAVYYCAREWMDHSRPYYYYGMDVWGQGTLVTVSS VL: SYELTQPPSVSVSPGQTASITCSGHNLEDKFASWYQQKPGQSPVLVIYRDDKRPSGIPERFSASNSGHTATLTISGTQATDEADYYCSSQDTVTRVFGGGTKLTVL | Kd [2]: < 0.25 nM; IC50 (read off the curve) [4]: ~0.5 nM; Kd [6]: 0.148 nM; koff [6]: 2.85e-05 s⁻¹; kon [6]: 193000 M⁻¹ s⁻¹ |
| 0.32 | 0.29 to 0.35 | 0.154 | 3.02e-05 | 196000 | Abet0377 scFv (scFv, V domains shown, not shown: small tags and cut ends, Purified scFv expressed in E. coli) VH: EVQLLESGGGLVQPGGSLRLSCAASGFNFNEQTLWWVRQAPGKGLEWVSVIGVGTKNIAYADTVKGRFTISRDNSKNTLYLQMNSLRAEDTAVYYCAREWMDHSRPYYYYGMDVWGQGTLVTVSS VL: SYELTQPPSVSVSPGQTASITCSGHNTEHKWISWYQQKPGQSPVLVIYRDDKRPSGIPERFSATNSGHTATLTISGTQATDEADYYCSSQDTVTRVFGGGTKLTVL | IC50 (read off the curve) [8]: ~0.3 nM |
| 14 | 8.1 to 18 | 58.7 | 0.0066 | 116000 | Abet0144-GL scFv (scFv, V domains shown, not shown: small tags and cut ends, Purified scFv expressed in E. coli; also called parent clone) VH: EVQLLESGGGLVQPGGSLRLSCAASGFTFSVYTMWWVRQAPGKGLEWVSVIGSSGGTTVYADSVKGRFTISRDNSKNTLYLQMNSLRAEDTAVYYCAREWMDHSRPYYYYGMDVWGQGTLVTVSS VL: SYELTQPPSVSVSPGQTASITCSGHNLEDKFASWYQQKPGQSPVLVIYRDDKRPSGIPERFSASNSGHTATLTISGTQAMDEADYYCQAQDSTTRVFGGGTKLTVL |  |
| 0.73 | 0.69 to 0.76 | 0.222 | 3.33e-05 | 150000 | Abet0321b scFv (scFv, V domains shown, not shown: small tags and cut ends, Purified scFv expressed in E. coli) VH: EVQLLESGGGLVQPGGSLRLSCAASAYHSNHDPMWWVRQAPGKGLEWVSVIGSSGGTTAYADSVKGRFTISRDNSKNTLYLQMNSLRAEDTAVYYCAREWMDHSRPYYYYGMDVWGQGTLVTVSS VL: SYELTQPPSVSVSPGQTASITCSGHNLEDKFASWYQQKPGQSPVLIIYRDDKRPSGIPERFSASNSGHTATLTISGTQATDEADYYCSSQDTVTRVFGGGTKLTVL |  |
| 0.71 | 0.43 to 0.98 | 0.812 | 0.000165 | 203000 | Abet0322b scFv (scFv, V domains shown, not shown: small tags and cut ends, Purified scFv expressed in E. coli) VH: EVQLLESGGGLVQPGGSLRLSCAASNEEFQYNPMWWVRQAPGKGLEWVSVIGSSGGATVYADAVKGRFTISRDNSENTLYLQMNSLRAEDTAVYYCAREWMDHSRPYYYYGMDVWGQGTLVTVSS VL: SYELTQPPSVSVSPGQTASITCSGHNLGDKFASWYQQKPGQSPVLVIYRDDKRPSEIPERFSASNSGHTATLTISGTQATDEADYYCSSQDTVTRVFGGGTKLTVL |  |
| 0.67 | 0.57 to 0.76 | 0.894 | 0.000188 | 210000 | Abet0323b scFv (scFv, V domains shown, not shown: small tags and cut ends, Purified scFv expressed in E. coli) VH: EVQLLESGGGLVQPGGSLRLSCAASTSTFQEDTMWWVRQAPGKGLEWVSVIGPNPKNNAYADSVKGRFTISRDNSKNTLYLQMNSLRAEDTAVYYCAREWMDHSRPYYYYGMDVWGQGTLVTVSS VL: SYELTQPPSVSVSPGQTASITCSGHNLEDKFASWYQQKPGQSPVLVIYRDDKRPSGVPERFSASNSGHTATLTISGTQATDEADYYCSSQDTVTRVFGGGTKLIVL |  |
| 0.36 | 0.3 to 0.41 | 0.133 | 4.34e-05 | 327000 | Abet0369 scFv (scFv, V domains shown, not shown: small tags and cut ends, Purified scFv expressed in E. coli) VH: EVQLLESGGGLVQPGGSLRLSCAASSFQISKNTMWWVRRAPGKGLEWVSVIGKDETRFNYADSVKGRFTISRDNSKNTLYLQMNSLRAEDTAVYYCAREWMDHSRPYYYYGMDVWGQGTLVTVSS VL: SYGLTQPPSVSVSPGQTASITCSGRNIGDSWVAWYQQKPGQSPVLVIYRDDKRPSGIPERFSASNSGHTATLTISGTQATDEADYYCSSQDTVTRVFGGGTKLTVL | IC50 (read off the curve) [8]: ~0.4 nM |
| 0.42 | 0.41 to 0.43 | 0.236 | 6.04e-05 | 256000 | Abet0374 scFv (scFv, V domains shown, not shown: small tags and cut ends, Purified scFv expressed in E. coli) VH: EVQLLESGGGLVQPGGSLRLSCAASGFQFKDTPMWWVRQAPGKGLEWVSVIGDQNHKKAYADSVKGRFTISRDNSKNTLYLQMNSLRAEDTAVYYCAREWMDHSRPYYYYGMDAWGQGTLVTVSS VL: SYELTQPPSVSVTPGQTASITCSGHNLGGKFASWYQQKPGQSPVLVIYRDDKRPSGIPERFSASNFGHTATLTISGTQATDEADYYCSSQDTVTRVFGGGTKLTVL |  |
|  |  |  |  |  | B1 | Kd [9]: 0.322 nM; koff [9]: 0.000307 s⁻¹; kon [9]: 952000 M⁻¹ s⁻¹; binding result [10]: binds; binding result [11]: no binding; binding result [12]: no binding |
|  |  |  |  |  | VHHQKLVFFAEDVGSNK (peptide, UniProt P05067 683-699, looked up, domain: Abeta 12-28) [human Abeta 12-28 peptide] | binding result [1]: no binding (tested: log -5 M (10 uM)) |
|  |  |  |  |  | DAEFRHDSGYEVHHQK (peptide, UniProt P05067 672-687, looked up, domain: Abeta 1-16) [human Abeta 1-16 peptide] | binding result [1]: no binding (tested: log -5 M (10 uM)) |
